Laboratory results published in the nanobody polyreactivity screen of Harvey et al. (2022).

Assay: yeast display, Sf9 membrane polyspecificity reagent, FACS + sequencing; frameworks hold sequencing errors
Procedure, shortened: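 Polyreactivity labels are assigned by the sorting gate from which each nanobody was recovered. The gates were low and high (top ~1%), set on anti-HA fluorescence for expression and streptavidin fluorescence for reagent binding. Before sorting, galactose-induced (36–48 hours) yeast display cells were stained for 1 hour at 4 °C with 10% biotinylated, detergent-solubilized Sf9 membrane reagent.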

Row | Sequence | polyreactivity (PSR sort gate)
1 | QVQLVESGGGLVQAGGSLRLSCAASGSIFTKYAMGWYRQAPGKERELVAAITWSGGRTYYADSVKGRFTISRDNAKNTVYLQMNSLKPEDTAVYYCAADFFRQGYYYWGQGTQVTVSS | high polyreactivity
2 | QVQLVESGGGLVQAGGSLRLSCAASGFTFYYYAMGWYRQAPGKERELVAAISGGGGSTYYADSVKGRFTISRDNAKNTVYLQMNSLKPEDTAVYYCAAVGSWRYNYDYDYWGQGTQVTVSS | high polyreactivity
3 | QVQLVESGGGLVQAGGSLRLSCAASGRTFYAYAMGWYRQAPGKERELVAAISSGGSTYYADSVKGRFTISRDNAKNTVYLQMNSLKPEDTAVYYCNAGYYQWPFSGYDYWGQGTQVTVSS | low polyreactivity
4 | QVQLVESGGGLVQAGGSLRLSCAASGRTFPYYDMGWYRQAPGKERELVAAITSGGTTNYADSVKGRFTISRDNAKNTVYLQMNSLKPEDTAVYYCAAGSPWYYFSSYGYWGQGTQVTVSS | low polyreactivity
5 | QVQLVESGGGLVQAGGSLRLSCAASGSIFRYYAMGWYRQAPGKESEFVASITYRGGRTYYADSVKGRFTISRDNAKNTVYLQMNSLKPEDTAVYYCAARTRAGAWTSKYHDYWGQGTQVTVSS | high polyreactivity
6 | QLQLEESGGGLVQAGGSLRLSCAASGSTFSRNAMGWYRQAPGNERELVAAITIRGGSTSYADSVKGRFTISRENAKNTVYLQMNSLKPEDTAVYYCYRQSRNAGGYYWGQGTQVTVSS | low polyreactivity
7 | QVQLVESGGGLVQAGGILRLSCAASGSIFPFYAMGWYRQAPGKERELVATISWSGGRTYYADSVKGRFTISRDNANNTVYFQMNSLKPEVTAVYYCAAQSYDYWYDYDYWGQGTQVTVSS | high polyreactivity
8 | QVQLVESGGGLVQAGGSLRLSCAASGIIFNVNAMGWYRQAPGKERELVASINSGSTYYADSVKGRFTISRDNAKNTVYLQMNSLKPEDTAVYYCATGARSPPWGRSKKRTYYYWGQGTQVTVSS | high polyreactivity
9 | QVQLVESGGGLVQAGGSLRLSCAASGRTFWIYGMGWYRQAPGKERELVAAITRSGGSTNYADSVKGRFTISRDNAKNTVYLQMKSLKPEDTAVYYCAADTWYPGYYAYDYWGQGTQVTVSS | high polyreactivity
10 | QVQLVESGGGLVQAGGSLRLSCAASGFIFWDNAMGWYRQAPGKERELVAAISRNGGRTYYADSVKGRFTISRDNAKNTVYLQMNSLKPEDTAVYYCAAYTARSYGMDYWGQGTQVTVSS | high polyreactivity
11 | QVQLVESGGGLVQAGGSLRLSCAASGFISPSYAMGWYRQAPGKERELVAAIRSSDGSTYYADSVKGRFTISRDNAKNTVYLQMNSLKPEDTAVYYCAAGGSYYRDDYWGQGTQVTVSS | low polyreactivity
12 | QVQLVESGGGLVQAGGSLRLSCAASGRIFYYNAMGWYRPAPGKERELVAAIDWSGGSTYYADSVKGRFTISRDNAKNTVYLQMNSLKPEDTAVYYCNAPFRYVPPEGSGPYDYWGQGTQVTVSS | low polyreactivity
13 | QVQLVESGGGLVQAGGILRLSCAASGRTFNSYAMGWYRQAPGKERELVAAISWIGGSTYYADSVKGRFTISRDNAKNTVYLQMNSLKPEDTAVYYCAADSYRFYSGYYYWGQGTQVTVSS | low polyreactivity
14 | QVQLVESGGGLVQAGGSLRLSCAASGSIFQAYAMGWYRQAPGKERELVASISSGGGTNYADSVKGRFTISRDNAKNTVYLQMNSLKPEDTAVYYCAADVYLVKYDYWGQGTQVTVSS | low polyreactivity
15 | QVQLVESGGGLVQAGGSLRLTCAASGSIFTFYAMGWYRQAPGKERELVADISFSDVSTYYADSVKGRFTISRDNAKNTVYLQMNSLKPEDTAVYYCAARPYVVSQYFDGVEFYYWGQGTQVTVSS | low polyreactivity
16 | QVQLVESGGGLVQAGGSLRLSCAASGSIFQRNAMGWYRQAPGKERELVAAITYSGGGTYYADSVKGRFTISRDNAKNTVYLQMNSLKPEDTAVYYCAADYKSKYSGYIYDYWGQGTQVTVSS | low polyreactivity
17 | QVQLVESVGGLVQAGGSLRLSCAASGSIIKVYAMGWYRQAPGKERELVAGIRGSGGRTYYADSVKGRFTISRDNAKNTVYLQMNSLKPEDTAVYYCNARNPGRLGRFDYWGQGTQVTVSS | low polyreactivity
18 | QVQLVESGGGLVQAGGSLRLSCAASGRTFNGYAMGWYRQAPGKEREFVAAITSRGGSTYYADSVKGRFTISRDNAKNTVYLQMNSLKPEDTAVYYCAARAYTALSWRRYGYWGQGTQVTVSS | high polyreactivity
19 | QVQLVESGGGLVQAGGSLRLSCAASGSTFEDYAMGWYTQAPGKERELVAAINKTGGSTNYADSVKGRFTISRDNAKNTVYLQMNSLKPEDTAVYYCAADGSNYSASVAAFPYRVVYWGQGTQVTVSS | low polyreactivity
20 | QVQLVESGGGLVQAGGSLRLSCAASGRTYRVYAMGWYRQAPGKERELVASITRGGGTYADSVKGRFTISRDNAKNTVYLQMNSLKAEDTAVYYCNARWHRSTGGRQRYDYWGQGTQVTVSS | high polyreactivity
21 | QVQLVESGGGLVQAGGSLRLSCAASGITFGRYAMGWYRQAPGKERELVAAISWSGGSTYYADSVKGRFTLSRDNAKNTVYLQMNSLKPEDTAVYYCAVEWYYTSYHIRFYRDNYWGQGTQVTVSS | high polyreactivity
22 | QVQLVESGGGLVQAGGSLRLSCAASGSIFYKYALGWYRQAPGKERELVASITWSDGNTNYADSVKGRFTISRDNAKNTVYLQMNSLKPEDTAVYYCADGGWYPTSRIFDYWGQGTQVTVSS | low polyreactivity

Row | Sequence | polyreactivity (PSR sort gate)
23 | QVQLVESGGGLVQAGGSLRLSFAASGRTFYQYGQGWYRQAPGKERELVAAISDSGGGTYYADSVKGRFTFSRDNAKNTVYLQMNSLIPEDTAVYYCAATYVGPRRRYYYWGQGTQVTVSS | high polyreactivity
24 | QVQLVESGGGLVQAGGSLRLSCAASGSIFGRNALGWSRQAPGKERELVAAIRDSGTSTYYADSVKGRFTISRDNAKNTVYLQMNSLKPEDTAVYYCAASRRPGYTYGYWGQGTQVTVSS | high polyreactivity
25 | QVQLVESGGGLVQAGGSLRLSCAASGRTFPPYGMGWNRQAPGKERELVADISKSSGSTNYADSVKARFTISRDKAKNTVYLQMNSVKPEDTAVYYCNVDLYRWSKLAGAYRMDYSGQGTQVTVSS | low polyreactivity
26 | QVQLEESGGGLVQAGGSLRLSCAASGLIFIQYAMVWNRQAPGKERELVAAISGSGVTTYYADSVNGSFTISRDKAMNTVYLQMTSLKPEDTAVYYCNAALRWKYDWGQGTQVTVSS | low polyreactivity
27 | QVQLVESGGGLVQAGGSLRLSCAASGSTFTNYALGWYRQAPGKEREFVAAITFRGGRTYYADSVKGRFTISRDNAKNTVYLQMNSLKPEDTAVYYCNKRTSPKRFDYWGQGTQVTVSS | high polyreactivity
28 | QVHLVESGGGLVQAGGSLRLSCAASGRIFPAYVMGWYRQAPGKERELVAGITSASSTYYADSVKGRFTISRDNAKNTVYLQMNSLKPEDTAVYYCAAVGYSVRQRYDYWGQGTQVTVSS | high polyreactivity
29 | QDQLVESGGGLVQAGGSLRLSCAASGSIFYPYAMGWYRQATGKEREFVAGITTRGGSTYYADSVKGRFTISRDNAKNTVYLQMNSLKPVDTAVYYCNAGYYLTLDYWGQGTQVTVSS | high polyreactivity
30 | QVQLVESGGGLVQAGGSLRLSCAASGSILYRYAMGWYRQAPGKERELVAAITRSGGSTYYADSVKGRFTITRDNAKNTVYFQMNSLKPEDTAGYYCARQRKVSAHSIEMDYWGQGTQVTVSS | low polyreactivity
31 | QEQHVESGGGLVQAGGSLRLSSAASVNIIGFYAKGWYREAPGKESEFVAAISFGTDRTYYADSVKGRFTISRENAKNTVYLQMNSLKPEDTALYYCNRRCNNGVRYGECDYWGQGTQVTVSS | high polyreactivity
32 | QVQLVESGGGLVQAGGSLRLSCAASGTTFFNNAMGWYRQAPGKERELVAAITSGRTYYADSVKGRFTISRDNAKNTVYLLMNSLKPEDTAVDYCAKDADQDADKPFQFTMDYWGQGTEVTVSS | low polyreactivity
33 | QVPLVESAGGLVQAGGSLRLSCAASGSTFYPYAMGWYRQAPGKERELVAAISSGGSTSYADSVKGRFTISRDNAKNTVYLQMNSLKPEDTEVYYCHASSPGAVPVYDYDYWGQGTQVTVSS | low polyreactivity
34 | KVQLVESGGGLVQARGSLRLSCAASGRIIRYYVMGWYRQAPGKERELVASISWRGTSTYYADSVKGRFTISRDNAKNTVYLQMNSLKPEDTAVYYCNAARPGKNYDSWGQGTQVTVSS | high polyreactivity
35 | QVQLEESGGGLVQAGGSLRLSFAASISSINAMGWYRQAPGKESELVAAIRCSGSSTYYADSVKGRFTISRDNAMITFYLQMNSVKPEDTAVYYCAADTSTGDRGFDYWGHGTQVTVSS | high polyreactivity
36 | QVQLVESGGGLVQAGGSLRLTSAGSGFTFTIYAMGWYRQAPGKERELVATISGRAGRTYYADSVKGRFTISRDNAKNTVYLQMNSLKPEDTAVYYCNAGQWRYPGLYYYWGQGSQVTVSS | high polyreactivity
37 | QVQLVESGGGLVQAGGSLRLSCAASGRTSYLYALGWYRQAPGKERELVAAISRGVGSTYYADSVKGRFTISRDNAKNTVYLQMHSLKPEDTAVYYCAAYRYTPWMYYWGQGTQVTVSS | high polyreactivity
38 | QVQLVESGGGLVQAGGSLRLSCAASGSIFVLNAMGWYRQAPGKERELVAVISNIGGRTYYADSVKGRFTISRDNAKNTVYLQMNSLKPEDTAVYYCIFRSPSYEYDYWGQGTQVTVSS | low polyreactivity
39 | QVQLVESGGGLVQAGGSLRLSCAASGRTFKKYAMGWYRQAPGKERELVAAIRRSGGSTYYADSVKGRFTISRDNAKNTVYLQMNSLKPEDTAVYYCAADFRVGRYDYWGQGTQVTVSS | high polyreactivity
40 | QVQLVDSGVGLVQAGGSLRLSCAASGSIFYQNAMGWYRQAHGSERELVAAITSDGSTYYADSVKGRFTISRDNAKNTVYLQMNSLKPEDTAVYYCPAEYYGHRYDYCGQGTQVTVSS | low polyreactivity
41 | QDQLVESGGGLVQAGGSLRLSCAASGSTFVGNAMGWYRQAPGKERELVAAISRTGGSTYYADSVKGRFTISRDNAKNTVYLQMNSLKPEDTAVYYCAARRYDIRYYYVTYRPPKMYYWGQGTQVTVSS | high polyreactivity
42 | QVQLVESGGGLVQAGGSLRLSCAASGSTFPLYAMGWYRQAPGKEREFVAAIRWIGGSTYYADSVKGRFTISRDNAKNTVYLQMNSLKPEDTAVYYCAADYVVSAFDYWGQGTQVTVSS | low polyreactivity
43 | QVQRVESGAGLVQAGGILRLSCPASGSIFTNNPMGWSRQAPGKARELVAGISFRGSSTYADSVKGRFTISRDNAKNSVYLQMNSLNPVDPAVYYCAGDGLYWWMYYWGQGTQVTVSS | low polyreactivity
